Consider one molecule from patent US20070092942A1, “Ubiquitin specific enzymes of family herpesviridae” (priority 2005, published 2007).

The target of this series is T1, His6UL36^USP (Human herpesvirus 1, UniProt P10220).
T1 construct: amino acids 1 to 533 of the UL36 gene product from HHV HSV1; 6-His (pET-28a(+)) (N); 6-His (pET-28a(+)) (C); made in house; host or cells: E. coli BL21 or BL21 RIPL
Kind of series: Cleavage of Ub-AMC by recombinant UL36^USP. Format: biochemical, HSV-1. To be noted: ~0.1 pmol enzyme, Ub-AMC, 25° C. On the procedure:
Recombinant UL36^USP and UL36^USP/C65A (˜0.1 pmol) were incubated in 125 μl kinetics buffer (50 mM HEPES, pH 7.5, 0.5 mM EDTA) supplemented with 1 mM DTT at room temperature for 10 minutes. To this was added 75 μl of Ub-AMC (250 nM in kinetics buffer) and AMC liberation was measured at 25° C. For inhibition experiments, one of UbVME, SUMO-VME, ISG15-VS, or Nedd8-VS (10 pmol) was incubated with recombinant UL36^USP (˜0.1 pmol) for 30 minutes at room temperature. To this was added 75 μl of Ub-AMC (250 nM in kinetics buffer) and AMC liberation was measured. Cleavage experiments were performed in triplicate. All fluorescence measurements were made using a Wallac Victor^3 1420 fluorescence/luminescence plate reader (Perkin Elmer) using 380 nm excitation and 460 nm emission wavelengths, with 5 second intervals between measurements. Data were exported as an Excel file and plotted as mean values of replicate experiments using Kaleidagraph v3.6 (Synergy Software).
In a typical eukaryotic cell, the presence of multiple DUBs, whose substrate pool and catalytic activities may overlap, confounds straightforward analysis of the activity of any one particular DUB. […] The proteins were expressed, purified over Ni-NTA resin and evaluated for their ability to cleave Ub C-terminal 7-amido-4-methylcoumarin (Ub-AMC) (Dang et al., 1998). […]

B1: His6UL36^USP: His-tagged recombinant 533 N-terminal amino acids of HSV-1 UL36, ubiquitin-specific cysteine protease (protein)
chain: MGGGNNTNPGGPVHKQAGSLASRAHMIAGTPPHSTMERGGDRDIVVTGARNQFAPDLEPGGSVSCMRSSLSFLSLIFDVGPRDVLSAEAIEGCLVEGGEWTRATAGPGPPRMCSIVELPNFLEYPGARGGLRCVFSRVYGEVGFFGEPAAGLLETQCPAHTFFAGPWALRPLSYTLLTIGPLGMGLFRDGDTAYLFDPHGLPEGTPAFIAKVRAGDMYPYLTYYTRDRPDVRWAGAMVFFVPSGPEPAAPADLTAAALHLYGASETYLQDEAFSERRVAITHPLRGEIAGLGEPCVGVGPREGVGGPGPHPPTAAQSPPPTRARRDDRASETSRGTAGPSAKPEAKRPNRAPDDVWAVALKGTPPTDPPSADPPSADPPSAIPPPPPSAPKTPAAEAAEEDDDDMRVLEMGVVPVGRHRARYSAGLPKRRRPTWTPPSSVEDLTSGEKTKRSAPPAKTKKKSTPKGKTPVGAAVPASVPEPVLASAPPDPAGPPVAEAGEDDGPTVPASSQALEALKTRRSPEPPGADLAQLF
modifications: left off: small tags and cut ends
notes: His-tagged recombinant 533 N-terminal amino acids of HSV-1 UL36, ubiquitin-specific cysteine protease
Take B1: the “Turnover number for Ub-AMC cleavage” value was around 6 min⁻¹.
